Article PMC5610943 (Journal of molecular biology, 2017)

Target: recombinant M. smegmatis RNAP β′ subunit (N-terminal 6xHistidine) (M. smegmatis, UniProt A0QS66 1-1317)
Assay: co-IP

binding result: binds
B1: purified recombinant MsmTopoI (enzyme, M. smegmatis, UniProt A0R5D9 1-936, looked up)
chain: MAGGDRGSGGTGNVRRLVIVESPTKARKIAGYLGSNYVVESSRGHIRDLPRNAADVPAKFKSEPWARLGVNVDQNFEPLYIVSPEKKSTVTELKGLLKDVDELYLATDGDREGEAIAWHLLETLKPRVPVKRMVFHEITEPAIRNAAENPRDLDIALVDAQETRRILDRLYGYEVSPVLWKKVAPKLSAGRVQSVATRIIVQRERERMAFHSASYWDVTAELDASVSDPSASPPKFTAKLNTVDGRRVATGRDFDSLGQLKRPDEVLVLDEASAGALASGLRGAQLAVTSVEQKPYTRRPYAPFMTSTLQQEAARKLRFSSERTMSIAQRLYENGYITYMRTDSTTLSESAINAARTQARQLYGEEYVHPSPRQYTRKVKNAQEAHEAIRPAGDVFQTPGQLHSALDTDEFRLYELIWQRTVASQMADARGTTLSLRIGGSASSGEQVVFNASGRTITFPGFLKAYVESIDELAGGESDDAESRLPNLTQGQRVDAADLSADGHQTSPPARYTEASLIKALEELGIGRPSTYSSIIKTIQDRGYVQKKGSALVPSWVAFAVVGLLEQHFGRLVDYDFTAAMEDELDEIANGQEQRTNWLNNFYFGGEHGVEGSIARAGGLKQLVGGNLEGIDAREVNSIKVFDDSEGRPVYVRVGRNGPYLERMVDDPDNPGEQKPQRANLKEDLTPDELTPELAEKLFATPQEGRSLGIDPETGHEIVAKDGRFGPYVTEVLPEPEDGGDDGTAGTPAKKGKKPTGPKPRTGSLFRSMDLETVTLEDALKLLSLPRVVGVDPTTNEEITAQNGRYGPYLKRGTDSRSLATEDQIFTITLDEALKIYAEPKRRGRQAASAPPLRELGNDPVSGKPMVIKDGRFGPYVTDGETNASLRKGDDVLTITDERASELLADRRARGPVKKKAPAKKAAKKAPAKKAAAKKA
